According to EP4814013A1 (Nanjing Regenecore Biotech Co., Ltd., dated 2026):
Substitutions are numbered along the chain they refer to.

Tests used:
[1] = target: T1, human recombinant CD16a extracellular domain protein, amino acids 17-208 with V at position 176 (CD16a-V176) (human, UniProt P08637 17-208); test: ELISA of crude VHH extracts of panned phage-library clones on coated antigen, anti-HA-HRP; positive = OD more than 5 times the control
T1 construct: range 17-208; Made in-house in 293F cells; also called human CD16a (V176)

[2] = target: T2, human recombinant FOLR1 extracellular domain protein, amino acids 25-233 (human, UniProt P15328 25-233); test: phage display panning and clone ELISA as in Examples 1-4
T2 construct: range 25-233; Made in-house in 293F cells

[3] = target: T3, human recombinant CD16a extracellular domain protein, amino acids 17-208 with F at position 176 (CD16a-F176) (human, UniProt P08637 17-208); test: ELISA of crude VHH extracts of panned phage-library clones on coated antigen, anti-HA-HRP; positive = OD more than 5 times the control
T3 construct: range 17-208; Made in-house in 293F cells; also called human CD16a (F176)

[4] = target: T4, human recombinant Nkp46 extracellular domain protein, amino acids 22-254 (human, UniProt O76036 22-254); test: phage display panning and clone ELISA as in Examples 1-4
T4 construct: range 22-254; Made in-house in 293F cells
T4 sequence (O76036 22-254 limits assumed): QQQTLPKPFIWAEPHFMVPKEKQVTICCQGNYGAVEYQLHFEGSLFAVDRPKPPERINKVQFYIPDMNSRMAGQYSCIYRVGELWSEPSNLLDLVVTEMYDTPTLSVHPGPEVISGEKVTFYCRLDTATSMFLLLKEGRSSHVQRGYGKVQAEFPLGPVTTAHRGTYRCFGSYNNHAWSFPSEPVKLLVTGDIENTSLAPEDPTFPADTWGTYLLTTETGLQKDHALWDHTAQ

T1 sequence (P08637 17-208 F176V limits assumed): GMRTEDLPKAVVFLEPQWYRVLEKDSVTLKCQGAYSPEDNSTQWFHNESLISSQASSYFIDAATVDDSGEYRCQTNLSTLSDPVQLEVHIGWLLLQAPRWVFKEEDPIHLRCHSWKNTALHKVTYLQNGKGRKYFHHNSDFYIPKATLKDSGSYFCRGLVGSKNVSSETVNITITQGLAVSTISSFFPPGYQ
T3 sequence (P08637 17-208 limits assumed): as the sequence (P08637 17-208 F176V limits assumed) above, with V160F counted along it
T2 sequence (P15328 25-233 limits assumed): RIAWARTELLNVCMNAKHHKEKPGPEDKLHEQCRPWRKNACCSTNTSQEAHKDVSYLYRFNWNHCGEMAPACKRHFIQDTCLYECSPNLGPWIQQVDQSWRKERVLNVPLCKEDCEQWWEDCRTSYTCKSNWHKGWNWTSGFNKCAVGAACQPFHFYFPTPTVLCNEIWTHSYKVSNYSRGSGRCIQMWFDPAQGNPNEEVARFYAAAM

B1: anti-CD16a single-domain antibody clone 13G6 (VHH, crude extract from pMECS) (VHH)
VHH: QVQLVESGGGLVQPGGSLRLSCAASGRTFRIYAMGWFRQAPGKEREFVGSIRLMRGITDYADSVKGRFTISRDNAKFTMYLQMNTLKPEDTAVYYCAAVGSGGDFYTPSTSGEYRYWGQGTQVTVSS
notes: Crude antibody extract of an E. coli TG1 clone; not shown: C-terminal tag(s) from the pMECS vector (HA tag detected with anti-HA-HRP, tag for nickel-column purification)
binding result [1]: binds

B2: FOLR1-4F4 single-domain antibody (VHH)
VHH: QVQLVESGGGSVQAGGSLRLSCAASDGTYRRYCMGWFRQAPGKEREKVAAIYTGDGTTYYADSVKGRFTISQENAKNTMYLQMNSLKPEDTAMYYCAADRSGCSVAWSYSSFEDWGQGTQVTVSS
notes: Parental (not humanized) clone as screened
binding result [2]: binds

B3: anti-CD16a single-domain antibody clone 14A3 (VHH, crude extract from pMECS) (VHH)
VHH: QVQLVESGGGLVQPGGSLRLSCEVSGRTFSYLALGWFRQAPGKEREFVAAASWGGGSTGYADSVKGRFAISRDNVKNTQYLQMNSLKPEDTAVYYCVVGRRFKGSVYYTPNEYEYWGQGTQVTVSS
notes: as for B1
binding result [1]: binds

B4: anti-CD16a single-domain antibody clone 23D1 (VHH, crude extract from pMECS) (VHH)
VHH: B3 VHH with P14A, E23A, L34M, A51S, S57T, T58S, V75A
notes: as for B1
binding result [1]: binds

B5: anti-CD16a single-domain antibody clone 4B5 (VHH, crude extract from pMECS) (VHH)
VHH: QVQLVESGGGLVQAGGSLRLSCAASGGTFRIYAMGWFRQAPGKEREFVGSISMMRGITDYAESVKGRFTISRDNAKFTMYLQMNSLKSEDTAVYYCAKAVDKSPYGGWGWGPYDDWGQGTQVTVSS
notes: as for B1
binding result [3]: binds

B6: Nkp46-7F10 single-domain antibody (VHH)
VHH: QVQLVESGGGLVQAGGSLRLSCAASGRTFSSYAMGWFRQAPGKEREFVAGISWSGDSTYYADSVKGRFTISRDNAKNTVGLQMNSLKPEDTAVYYCAAASGQVQTVVVVTDRWYHYWGQGTQVTVSS
notes: as for B2
binding result [4]: binds

B7: anti-CD16a single-domain antibody clone 15E2 (VHH, crude extract from pMECS) (VHH)
VHH: QVQLVESGGGLVQAGDSLRLSCAASGGTFRIYAMGWFRQAPGKEREFVGSISMMRGITDYAESVKGRFTISRDNAKFTMYLQMNTLKPEDTAVYYCAIRERPPPMGWGLAGISYDYWGQGTQVTVSS
notes: as for B1
binding result [3]: binds
